The values that follow come from article PMC7614687, “Modulation of the substrate specificity of the kinase PDK1 by distinct conformations of the full-length protein*” (Science signaling, 2023).

Data set [1] deals with T1, GST-PDK1_1-556 (Homo sapiens, UniProt O15530).
T1 construct: made in house; host or cells: HEK293 cells (transient transfection of pEBG2T); peptide synthesized by Pepscan
T1 sequence (O15530 1-556): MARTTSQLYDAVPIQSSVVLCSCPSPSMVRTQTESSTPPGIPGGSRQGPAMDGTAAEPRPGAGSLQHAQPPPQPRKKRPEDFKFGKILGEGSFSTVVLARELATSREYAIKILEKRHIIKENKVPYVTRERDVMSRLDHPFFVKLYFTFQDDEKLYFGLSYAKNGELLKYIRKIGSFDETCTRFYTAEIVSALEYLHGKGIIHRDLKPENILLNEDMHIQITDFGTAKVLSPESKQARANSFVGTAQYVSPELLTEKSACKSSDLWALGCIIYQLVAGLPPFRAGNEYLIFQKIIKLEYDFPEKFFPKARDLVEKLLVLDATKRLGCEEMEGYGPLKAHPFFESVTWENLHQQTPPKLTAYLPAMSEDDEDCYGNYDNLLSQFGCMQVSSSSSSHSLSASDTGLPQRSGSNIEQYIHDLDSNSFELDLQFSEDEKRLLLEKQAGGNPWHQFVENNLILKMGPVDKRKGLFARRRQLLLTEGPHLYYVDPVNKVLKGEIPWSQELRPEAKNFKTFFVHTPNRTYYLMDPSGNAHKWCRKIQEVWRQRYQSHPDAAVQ
In words: AlphaScreen GST-PDK1_1-556 / biotin-PIFtide interaction. The format is binding. As for the experimental part:
The AlphaScreen® assay was performed following the general guidelines from the manufacturer (Perkin Elmer) ([29]). In short, the assay was performed in a final volume of 25 μl in white 384-well microtiter plates (Greiner) in a standard buffer containing 50 mM Tris-HCl (pH 7.4), 100 mM NaCl, 2 mM DTT, 0.01% (v/v) Tween-20 and 0.1% (w/v) BSA, with the addition of 5 μl of beads (anti-GST coated acceptor beads and streptavidin-coated donor beads; nickel chelate-coated acceptor beads and streptavidin-coated donor beads; or nickel chelate-coated acceptor beads and GSH-coated donor beads, 20 μg/ml final concentrations for each bead type). AlphaScreen assays for His-tagged proteins and GST-fusion proteins were performed using nickel chelate-coated acceptor beads and GSH-coated donor beads; alphascreen assays for His-tagged proteins and biotinylated molecules were performed using nickel chelate-coated acceptor beads and streptavidin-coated donor beads; alphascreen assays for GST-fusion proteins and biotinylated molecules were performed using anti-GST coated acceptor beads and streptavidin-coated donor beads (Perkin Elmer).
The interaction between GST-PDK1_1-556 and biotin-PIFtide was performed as described previously ([29], [32]) in the standard buffer, but the bead concentration was lowered to 15 μg/ml.

Data set [2] deals with the molecule itself. In words: STORM-based single-molecule fluorescence intensity; TMR-Star-labelled SNAP-PDK1 diluted and adsorbed on PDDA-coated slides; 50 mM Tris-HCl pH 7.4, 100 mM NaCl, 1 mM DTT; dimers told from monomers by spot intensity.
Data set [3] has as its target T2, GST-PDK1_(1-556) (UniProt O15530 1-556).
T2 construct: source: HEK293 cells, transient transfection of pEBG2T plasmid, purified, dialyzed to remove GSH
T2 sequence (looked up): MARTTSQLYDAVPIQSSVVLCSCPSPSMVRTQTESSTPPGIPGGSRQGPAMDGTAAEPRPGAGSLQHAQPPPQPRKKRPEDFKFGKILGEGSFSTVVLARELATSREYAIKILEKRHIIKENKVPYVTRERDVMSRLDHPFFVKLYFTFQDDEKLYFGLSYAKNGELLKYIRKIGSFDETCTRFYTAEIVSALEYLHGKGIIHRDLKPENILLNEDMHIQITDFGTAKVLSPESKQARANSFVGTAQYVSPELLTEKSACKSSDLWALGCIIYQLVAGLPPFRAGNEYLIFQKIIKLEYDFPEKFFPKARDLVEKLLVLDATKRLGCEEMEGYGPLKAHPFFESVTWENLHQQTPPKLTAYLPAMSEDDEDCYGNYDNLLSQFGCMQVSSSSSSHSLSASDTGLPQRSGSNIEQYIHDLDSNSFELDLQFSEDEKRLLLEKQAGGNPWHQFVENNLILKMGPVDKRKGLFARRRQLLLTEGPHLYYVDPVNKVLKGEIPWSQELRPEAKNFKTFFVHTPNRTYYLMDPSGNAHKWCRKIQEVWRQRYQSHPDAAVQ
Briefly: AlphaScreen or HTRF; GST-PDK1_(1-556) (150 nM) and biotin-GS-022; anti-GST coated acceptor beads and streptavidin-coated donor beads; standard buffer; with or without HYG8. Conditions: both partners purified.

Data set [4] addresses T3, His-PDK1_(1-556) (UniProt O15530 1-556).
T3 construct: also called full-length PDK1; PDK1 FL; source: Sf9 insect cells (Bac-to-Bac baculovirus), purified (Ni-NTA, gel filtration); not shown: His, N-terminal, kept; myc, N-terminal, kept
T3 sequence (looked up): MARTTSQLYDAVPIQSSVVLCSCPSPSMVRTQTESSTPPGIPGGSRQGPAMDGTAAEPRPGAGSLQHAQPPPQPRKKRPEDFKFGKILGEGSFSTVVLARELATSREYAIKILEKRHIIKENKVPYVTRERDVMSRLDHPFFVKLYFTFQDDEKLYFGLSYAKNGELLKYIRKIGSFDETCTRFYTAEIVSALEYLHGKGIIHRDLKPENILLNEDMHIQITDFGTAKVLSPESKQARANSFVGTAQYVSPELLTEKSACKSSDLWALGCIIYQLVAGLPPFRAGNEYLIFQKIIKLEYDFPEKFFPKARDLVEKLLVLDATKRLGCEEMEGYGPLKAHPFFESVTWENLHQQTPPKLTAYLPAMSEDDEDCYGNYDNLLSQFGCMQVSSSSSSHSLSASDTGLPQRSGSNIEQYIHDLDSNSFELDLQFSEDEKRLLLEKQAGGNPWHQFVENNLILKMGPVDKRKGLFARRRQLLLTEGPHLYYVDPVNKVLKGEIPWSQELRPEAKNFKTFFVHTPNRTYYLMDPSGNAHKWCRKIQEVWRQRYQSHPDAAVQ
In words: AlphaScreen or HTRF; His-PDK1_(1-556) and GST-PDK1_(360-556); nickel chelate-coated acceptor beads and GSH-coated donor beads; standard buffer 50 mM Tris-HCl pH 7.4, 100 mM NaCl, 2 mM DTT, 0.01% Tween-20, 0.1% BSA; 60 min at room temperature. Conditions: both partners purified. On the technique in general: Bead proximity is the source of the signal in Alpha formats.

No end group written: not given here. *: point of attachment. Biotin = O=C1N[C@H]2[C@H](CS[C@H]2CCCCC(=O)*)N1

For `O=P(O)(O)OC1[C@H](O)[C@H](OP(=O)(O)O)C(OP(=O)(O)O)[C@H](OP(=O)(O)O)[C@H]1O` (stereo partly shown) [IP4, inositol-1,3,4,5-tetrakisphosphate, reference compound], in data set [1], the “effect on PDK1-PIFtide interaction” value is “did not enhance binding to PIFtide”.

B1: SNAP-PDK1_(50-556) (enzyme, UniProt O15530 50-556, looked up)
chain: AMDGTAAEPRPGAGSLQHAQPPPQPRKKRPEDFKFGKILGEGSFSTVVLARELATSREYAIKILEKRHIIKENKVPYVTRERDVMSRLDHPFFVKLYFTFQDDEKLYFGLSYAKNGELLKYIRKIGSFDETCTRFYTAEIVSALEYLHGKGIIHRDLKPENILLNEDMHIQITDFGTAKVLSPESKQARANSFVGTAQYVSPELLTEKSACKSSDLWALGCIIYQLVAGLPPFRAGNEYLIFQKIIKLEYDFPEKFFPKARDLVEKLLVLDATKRLGCEEMEGYGPLKAHPFFESVTWENLHQQTPPKLTAYLPAMSEDDEDCYGNYDNLLSQFGCMQVSSSSSSHSLSASDTGLPQRSGSNIEQYIHDLDSNSFELDLQFSEDEKRLLLEKQAGGNPWHQFVENNLILKMGPVDKRKGLFARRRQLLLTEGPHLYYVDPVNKVLKGEIPWSQELRPEAKNFKTFFVHTPNRTYYLMDPSGNAHKWCRKIQEVWRQRYQSHPDAAVQ
modifications: SNAP-Cell TMR-Star label on the SNAP-tag
notes: also called TMR-SNAP-PDK1
In the case of B1, the binding result in data set [2] is reported as “binds”.

B2: biotin-GS-022 (peptide)
peptide: Biotin-RRRQFSLRRKAK
notes: synthetic peptide substrate of PDK1; source: synthetic peptide (Pepscan)
On to B2, for which the binding result in data set [3] is given as “binds”.

B3: GST-PDK1_(360-556) (domain or fragment, UniProt O15530 360-556, looked up)
chain: AYLPAMSEDDEDCYGNYDNLLSQFGCMQVSSSSSSHSLSASDTGLPQRSGSNIEQYIHDLDSNSFELDLQFSEDEKRLLLEKQAGGNPWHQFVENNLILKMGPVDKRKGLFARRRQLLLTEGPHLYYVDPVNKVLKGEIPWSQELRPEAKNFKTFFVHTPNRTYYLMDPSGNAHKWCRKIQEVWRQRYQSHPDAAVQ
notes: Cloned into the BamHI-KpnI sites of pEBG2T; also called GST-PDK1-Linker-PH; GST-linker-PH domain; source: HEK293 cells, transient transfection of pEBG2T plasmid, purified, dialyzed to remove GSH
In the case of B3, the binding result in data set [4] is on record as “binds”.
